From the supplement of paper PMC10567573

B1: INTS4 (parent)
chain: TIIEPAGESDNPLRFTSGLVVALD
B2: ACBD3 (parent)
chain: YVASHKIEKEEQEKKRKEEEERRR

Variants of: B1
Test: protein stability index of a GFP-peptide fusion (GPS, HEK-293T) (PSI 1-6); higher = more stable
Conditions: c terminus: a fixed tail appended
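Also: lentivirally expressed fusions sorted by FACS into six bins by GFP to DsRed ratio, PSI derived from sequencing read proportions per bin multiplied by bin number.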

Protein stability index: each site, then its substitutions
L23: Y 3.29 | T 3.92 | I 2.4 | R 3.6 | N 4.1 | W 2.97 | M 3.26 | P 4.17 | K 4.07 | Q 4.56 | S 4.35 | G 4.16 | E 4.4 | F 2.75 | A 4.1 | D 4.53 | V 3.1 | C 3.62 | H 3.81
A22: W 1.87 | Y 2.45 | S 3.2 | T 2.78 | V 1.95 | Q 2.65 | R 2.93
D24: V 2.33 | P 2.31 | Q 2.29 | I 1.33 | F 4.12 | E 2.38 | N 2.12 | T 2.2 | M 1.98 | A 2.75 | R 1.9 | L 1.73 | Y 2.31 | K 2.19 | W 2.4 | C 1.35 | G 2.51 | S 2.06 | H 1.93

Variants of: B2
Test: as above
Conditions: c terminus: a fixed tail appended

Protein stability index of substitutions, site by site:
E10: K 2.46 | N 2.79 | T 2.08 | G 1.9 | R 1.87 | F 1.76 | Q 1.88 | A 1.55 | M 2.42 | H 1.66 | V 2.46 | S 3.11 | D 2.42 | I 2.1
S4: W 1.49 | V 3.28 | T 2.74 | H 2.62 | F 2.07 | M 2.1 | K 3.67 | L 2.67 | R 2.57 | G 2.39 | C 2.81 | Q 3.14 | Y 2.49 | N 2.16 | P 3.8
E21: A 1.54 | Y 2.15 | I 2.57 | F 2.45 | V 3.05 | K 2.35 | S 2.52 | L 2.28 | D 2.25 | N 2.07 | R 2.04
R23: P 2.46 | L 2.7 | A 2.85 | N 2.74 | D 3.16 | Y 2.64 | H 2.29 | G 3.03 | W 2.02 | Q 2.71 | E 3.35 | T 3.43 | M 2.24 | K 2.74
K9: Q 3.22 | G 2.5 | C 2.5 | L 3.07 | S 2.78 | Y 2.28 | F 2.72 | D 3.61 | E 3.42 | A 3.03 | N 3.19 | M 2.8 | R 1.84
A3: C 2.5 | H 2.15 | W 2.85 | V 3.36 | Y 2.13 | G 2.33 | T 2.98 | L 3.09 | D 3.91
V2: S 5.25 | Y 4.75 | I 4.51 | Q 4.57 | P 5.11 | H 4.14 | C 4.4 | K 5.05 | D 5.36 | T 5.24 | N 5.04 | E 5.85 | M 5.36
K17: H 2.74 | G 3.79 | W 1.84 | A 2.88 | P 3.01 | F 2.32 | Q 2.07 | I 2.35 | D 2.77 | M 2.45 | R 3.32 | V 2.9 | S 3.09 | E 2.93 | C 2.41 | Y 2.06
K6: T 2.88 | L 2.66 | V 2.95 | M 3.21 | I 2.66 | E 3.67 | R 2.74 | Q 3.76 | N 2.7 | Y 2.12 | H 3.21 | G 2.96 | S 2.77
E8: D 2.74 | L 2.33 | N 2.36 | T 2.13 | F 1.12 | R 2.81 | S 2.83 | Q 2.14 | Y 2.32 | H 1.96 | I 2.16 | K 2.57 | W 2.03 | M 1.75 | P 2.29
H5: G 1.92 | Y 2.42 | A 3.1 | W 2 | K 2.61 | D 4.25 | P 3.08 | E 4.24 | T 3 | I 3.02 | L 2.82 | M 2.5 | N 2.4 | R 2.46
E18: A 3.07 | K 2.05 | H 1.6 | T 2.41 | D 2.38 | S 2.22 | P 2.25
I7: L 2.37 | G 3.13 | V 2.43 | R 2.67 | Y 2.36 | E 2.89 | P 3.35 | M 2.56 | F 2.53 | D 3.86 | T 3.09 | K 2.89 | Q 2.25 | W 1.81
K14: M 2.62 | V 3.09 | S 2.74 | Q 2.95 | H 2.22 | W 2.69 | C 2.67 | I 3.21 | G 2.79
R24: L 2.75 | H 3.01 | C 2.83 | V 3.46 | D 3.35 | Q 3.12 | E 2.19 | M 2.65 | N 3.67 | K 2.65 | I 2.52
E13: I 2.22 | C 2.66 | G 2.15 | H 2.25 | Q 2 | P 2.02 | L 2.27 | F 2.39 | V 2.93 | K 1.73 | D 2.9
R22: F 2.5 | W 2.28 | N 3.14 | M 2.76 | S 2.99 | C 2.69 | L 1.89 | V 2.89 | A 2.45 | K 2.69 | Y 2.87
R16: A 3.02 | D 2.76 | K 2.92 | P 2.6 | V 2.24 | H 2.4 | Y 2.74 | E 3.75 | F 2.34
E19: V 2.59 | S 2.54 | H 2.44 | P 1.81 | D 2.74 | Y 2.38 | C 2.53 | W 2.19 | Q 2.61 | I 3.02
Q12: C 2.92 | A 3.33 | V 2.02 | Y 2.67 | G 2.88 | E 3.63 | T 2.52 | P 2.31
E20: A 2.81 | H 2.39 | F 2.5 | Q 2.36 | V 1.82 | P 1.98 | S 2.62 | M 2.48 | C 3.17 | K 2.83 | N 2.56 | Y 1.58
Y1: P 5.43 | Q 5.5 | L 5.56 | E 5.83 | C 4.93 | H 5.57 | D 5.55 | I 5 | N 5.77 | S 5.5 | A 5.78 | G 4.73 | T 5.43 | W 5.65
E11: Q 2.79 | R 1.93 | I 2.24 | V 1.98 | T 4.28 | L 2.13 | S 2.57 | W 2.67 | Y 2.37 | K 1.71 | A 3.79 | C 2.55 | D 2.75 | H 3.12 | F 3.47
K15: Q 3.15 | M 2.6 | L 2.2 | H 3.06 | F 2.06 | C 2.09 | W 3.36 | N 2.62 | V 2.74 | D 2.73 | G 2.71
